Molecular target: nebu_human NEB (UniProt P20929)

Substance	effect of a mutation on the interaction
Titin (Homo sapiens), Q8WZ42 P258G	decreasing interaction
Titin (Homo sapiens), Q8WZ42 P268G	decreasing interaction
Titin (Homo sapiens), Q8WZ42 P266G	decreasing interaction
Titin (Homo sapiens), Q8WZ42 P254G	decreasing interaction
Titin (Homo sapiens), Q8WZ42 P269G	decreasing interaction

Reference: IntAct's records for PubMed 16902413
